From US20220387487A1, “COMPOSITIONS AND METHODS FOR TREATMENT OF CANCER” (Aleta Biotherapeutics Inc., priority 2019, published 2022)
Changes are numbered by the printed parent chain. In names and notes the source's numbering stands.

T1: CLEC12A (Homo sapiens, UniProt Q5QGZ9, K244Q)
T1 sequence (Q5QGZ9 65-265 K244Q): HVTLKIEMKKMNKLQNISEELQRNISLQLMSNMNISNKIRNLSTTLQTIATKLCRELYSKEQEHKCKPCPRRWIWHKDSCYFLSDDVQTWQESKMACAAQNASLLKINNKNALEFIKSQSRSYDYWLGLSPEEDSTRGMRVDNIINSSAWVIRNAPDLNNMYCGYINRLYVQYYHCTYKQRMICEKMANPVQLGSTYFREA

B1: #410: fusion protein containing the CD19 ECD and anti-CD33 scFv; SEQ ID NO:325 (protein)
chain: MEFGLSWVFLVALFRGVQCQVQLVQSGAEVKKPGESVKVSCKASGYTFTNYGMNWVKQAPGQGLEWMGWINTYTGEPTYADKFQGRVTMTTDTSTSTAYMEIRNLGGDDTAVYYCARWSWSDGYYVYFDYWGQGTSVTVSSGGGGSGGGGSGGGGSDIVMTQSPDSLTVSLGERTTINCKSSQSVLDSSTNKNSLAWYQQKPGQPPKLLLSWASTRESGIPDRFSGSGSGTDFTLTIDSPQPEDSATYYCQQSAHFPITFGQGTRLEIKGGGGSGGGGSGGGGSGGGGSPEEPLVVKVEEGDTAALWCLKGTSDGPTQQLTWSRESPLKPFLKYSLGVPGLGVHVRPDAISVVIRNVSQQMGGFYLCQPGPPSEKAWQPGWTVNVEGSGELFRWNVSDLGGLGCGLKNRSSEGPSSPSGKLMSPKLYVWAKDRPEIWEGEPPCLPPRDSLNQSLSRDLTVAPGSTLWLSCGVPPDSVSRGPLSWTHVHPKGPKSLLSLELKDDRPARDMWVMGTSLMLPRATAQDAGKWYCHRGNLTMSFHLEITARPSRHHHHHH
B2: W62T/F64V/F66R: CD19 variant (protein)
chain: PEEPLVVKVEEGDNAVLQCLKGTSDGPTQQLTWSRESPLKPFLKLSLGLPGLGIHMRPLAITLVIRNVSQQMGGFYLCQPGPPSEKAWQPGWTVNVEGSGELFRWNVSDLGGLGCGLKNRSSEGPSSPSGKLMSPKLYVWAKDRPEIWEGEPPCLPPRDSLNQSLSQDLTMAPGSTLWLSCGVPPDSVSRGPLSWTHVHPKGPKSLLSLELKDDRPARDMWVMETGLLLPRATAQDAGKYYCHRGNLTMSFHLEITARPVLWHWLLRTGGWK
B3: E224G/G226S/L228V: CD19 variant (protein)
chain: B2 chain with T62W, V64F, R66F, E224G, G226S, L228V
B4: W62S/F64V/F66S: CD19 variant (protein)
chain: B2 chain with T62S, R66S
B5: E224G/G226G/L228I: CD19 variant (protein)
chain: B2 chain with T62W, V64F, R66F, E224G, L228I
B6: L59N/I61I/L63I: CD19 variant (protein)
chain: B2 chain with L59N, T62W, L63I, V64F, R66F
B7: W62H/F64V/F66S: CD19 variant (protein)
chain: B2 chain with T62H, R66S
B8: E224G/G226A/L228V: CD19 variant (protein)
chain: B2 chain with T62W, V64F, R66F, E224G, G226A, L228V
B9: W62S/F64R/F66R: CD19 variant (protein)
chain: B2 chain with T62S, V64R
B10: W62S/F64F/F66N: CD19 variant (protein)
chain: B2 chain with T62S, V64F, R66N
B11: W62W/F64T/F66A: CD19 variant (protein)
chain: B2 chain with T62W, V64T, R66A
B12: W62T/F64M/F66S: CD19 variant (protein)
chain: B2 chain with V64M, R66S
B13: E224G/G226R/L228I: CD19 variant (protein)
chain: B2 chain with T62W, V64F, R66F, E224G, G226R, L228I
B14: W62D/F64A/F66S: CD19 variant (protein)
chain: B2 chain with T62D, V64A, R66S
B15: W62N/F64L/F66P: CD19 variant (protein)
chain: B2 chain with T62N, V64L, R66P
B16: W62D/F64V/F66S: CD19 variant (protein)
chain: B2 chain with T62D, R66S
B17: W62S/F64V/F66R: CD19 variant (protein)
chain: B2 chain with T62S
B18: W62G/F64V/F66R: CD19 variant (protein)
chain: B2 chain with T62G
B19: W62G/F64V/F66K: CD19 variant (protein)
chain: B2 chain with T62G, R66K
B20: #321: purified fusion protein of CD19 variant and anti-CLL-1 VHH; SEQ ID NO:303 (protein)
chain: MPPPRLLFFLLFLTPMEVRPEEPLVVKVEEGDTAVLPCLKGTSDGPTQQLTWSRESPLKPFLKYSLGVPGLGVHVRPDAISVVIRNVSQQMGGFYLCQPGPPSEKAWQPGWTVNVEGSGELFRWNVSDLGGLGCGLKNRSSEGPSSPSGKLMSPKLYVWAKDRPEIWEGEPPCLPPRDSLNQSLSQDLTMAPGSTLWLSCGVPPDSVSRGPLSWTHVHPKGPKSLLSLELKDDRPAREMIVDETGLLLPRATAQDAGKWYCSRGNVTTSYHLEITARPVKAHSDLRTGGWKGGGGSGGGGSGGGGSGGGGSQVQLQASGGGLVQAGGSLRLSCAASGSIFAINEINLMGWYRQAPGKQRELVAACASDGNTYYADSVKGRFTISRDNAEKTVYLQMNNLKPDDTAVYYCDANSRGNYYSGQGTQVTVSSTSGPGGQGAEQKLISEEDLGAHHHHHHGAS

Each molecule was assayed against T1, CLEC12A (assay: ELISA of fusion proteins, FMC63 coat, biotinylated CLEC12A detection). Conditions: not given.
Format: binding

In the case of B1, the “CLEC12A binding EC50 pM” value is reported as “∞”.

For B1, the “CLEC12A binding EC50 ng/ml” value was “∞”.

The molecules below were run on FMC63 (assay: CD19 variant binding to anti-CD19 antibody FMC63 (score)). Conditions: Table 1B, CD19 triple mutants.

B2 and B3 are within error of each other in “FMC63 Binding Score” value: 12.2 ± 2.1 for the first, 11.2 ± 1.1 for the second.

Going from B4 to B5, the “FMC63 Binding Score” value falls from 15.4 ± 2.8 to 11.2 ± 1.2.

B6 and B7 are within error of each other in “FMC63 Binding Score” value: 15.6 ± 5.6 for the first, 14. ± 4 for the second.

B9 and B10 are within error of each other in “FMC63 Binding Score” value: 13.7 ± 1.9 for the first, 15.6 ± 5.6 for the second.

B11 and B12 are within error of each other in “FMC63 Binding Score” value: 13.9 ± 4 for the first, 15.7 ± 5.6 for the second.

B13 and B14 are within error of each other in “FMC63 Binding Score” value: 12. ± 2 for the first, 15.5 ± 5.6 for the second.

B15 and B16 are within error of each other in “FMC63 Binding Score” value: 15.6 ± 5.6 for the first, 13.3 ± 3.2 for the second.

B17 and B18 are within error of each other in “FMC63 Binding Score” value: 11.8 ± 1.7 for the first, 14.1 ± 1.9 for the second.

In the case of B19, the “FMC63 Binding Score” value is reported as 12.3 ± 2.3.

In the case of B8, the “FMC63 Binding Score” value is reported as 10.8 ± .8.

The molecules below were run against CLEC12A (assay: ELISA binding of fusion proteins (FMC63 coat, HRP-anti-His detection)). Conditions: purified fusion protein, FMC63 coat; read-out: CLEC12A binding (ELISA EC50).
Parameters: species or system human
Procedure: The binding of the biparatopic fusion proteins to CLEC12A was also examined by ELISA. […] The plate was left to incubate overnight at 4° C. The coated plate was blocked with TBS/0.3% nonfat dry milk (NFD) for 60 minutes at RT.

Molecule B20 has an EC50 of 0.09 nM.

Each molecule was assayed on Molm14 cells (assay: CAR-CD19 T cell cytotoxicity bridged by purified fusion protein, luciferase Molm14 cells). Conditions: FIG. 21A.
Format: cell-based
Procedure: To test cytoxicity, luciferase labeled Molm14 or U937 cells were targeted for cytotoxic killing using a CAR19 T cell preparation and the purified proteins #330, #410 and #440 added in a dose titration. 1×10^4 target cells were added to each well (96 clear round bottom plate) in RPMI medium. The protein titration was started at 180 ng/ml with 3-fold serial titration into corresponding wells (25 μl per well). CAR-CD19 T cells were added at various E:T ratios to the target cells. After 48 hours the plate was centrifuged (450 RCF for 5 minutes) and the cells were washed 1× with PBS then centrifuged a second time. 20 μl lysis buffer was added into each well. The cell lysate was transferred to a 96 opaque white plate. The plates were read in a luminometer with an injector (Glomax Multi Detection System, Promega). The percent killing was calculated based upon the average loss of luminescence of the experimental vs the control (target cell only or target cell plus fusion protein only).

For B1, the “cytotoxicity on Molm14 cells” value was “about equipotent”.

The molecules below were run against CD33 (Homo sapiens, UniProt P20138) (assay: ELISA of fusion proteins, FMC63 coat, biotinylated CD33 detection). Conditions: ELISA, FMC63 coat, biotinylated CD33.
Format: binding
Procedure: ELISAs for binding to CD19, CLEC12A and CD33 were run using purified fusion proteins #330, #410 and #440. A 96 well plate was coated with 1.0 μg/ml FMC63 (Novus) in 0.1 M carbonate, pH 9.5 overnight at 4° C. The plate was blocked with 0.3% non-fat milk in TBS for 1 hour at room temperature. After washing in TBST (0.1 M Tris, 0.5 M NaCl, 0.05% Tween20) 3 times, the fusion protein supernatant was titrated using 3-fold dilutions in 1% BSA in TBS and incubated 1 hour at room temperature. For detection by anti-His, after washing 3 times in TBST, HRP-anti-His (BioLegend) was added at 1:2000. The plate was incubated at room temperature in the dark for 1 hour. For detection of binding to CLEC12A, biotinylated CLEC12A was added at 0.5 μg/ml and incubated for 1 hour. This was followed by adding HRP-SA (Pierce) at 1:2000 and incubated at room temperature in the dark for 1 hour. For testing binding to CD33, biotinylated CD33 was added at 0.5 μg/ml and incubated for 1 hour. This was followed by adding HRP-SA (Pierce) at 1:2000 and incubated at room temperature in the dark for 1 hour. Then, 1-Step Ultra TMB-ELISA (Thermo Fisher) solution, was added and the plate read at […]. Curves were fit using a four-parameter logistic (4 PL) regression to calculate the EC50.

In the case of B1, the “CD33 binding EC50” value is reported as 3.0 ng/mL.
